For data set [1], the target named is HilD (full length, unfused) (Salmonella enterica) (UniProt P0CL08). Kind of data set: SEC-MALS. On the technique in general: Size exclusion chromatography separates by hydrodynamic size, large species first.
Data set [2] addresses HilD N-terminal domain (HilD NTD, residues 7-206) (Salmonella enterica) (UniProt P0CL08). The data set is described as follows: SEC-MALS.
The target in data set [3] is GFP-HilD (Salmonella enterica) (UniProt P0CL08). Kind of data set: MST.
Data set [4] shares this target. Kind of data set: MST. This is another data set of the same source.
The data set “SEC-MALS” concerns the molecule itself. Kind of data set: SEC-MALS.
Data set [5] concerns the target T1, GFP-HilD (Salmonella enterica, UniProt P0CL08 1-309).
T1 sequence (looked up): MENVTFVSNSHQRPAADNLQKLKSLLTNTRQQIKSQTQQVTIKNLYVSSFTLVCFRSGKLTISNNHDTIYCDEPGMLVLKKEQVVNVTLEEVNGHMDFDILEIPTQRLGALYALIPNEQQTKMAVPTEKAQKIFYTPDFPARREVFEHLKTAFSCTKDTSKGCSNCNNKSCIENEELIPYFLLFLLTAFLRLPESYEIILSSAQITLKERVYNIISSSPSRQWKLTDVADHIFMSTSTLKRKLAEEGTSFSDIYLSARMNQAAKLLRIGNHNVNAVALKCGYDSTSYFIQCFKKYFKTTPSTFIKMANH
The data set is described as follows: MST.

Data set [6] addresses T1, GFP-HilD. The data set is described as follows: MST. The source holds these as a separate data set.

Like-named read-outs stand apart in the source and are kept apart here.

Consider 3 molecules from doi:10.1101/2023.02.23.529715 (bioRxiv, 2023).

In data set [1], HilE (natural protein) showed a stoichiometry N (HilE per HilD) of 1. The molecule also had a stoichiometry N (HilE per HilD NTD) in data set [2] of 1. Further, the equilibrium dissociation constant (Kd) in data set [3] came out at 1.7 µM; in data set [4], 1.68 µM.

B1: HilD N-terminal domain (HilD NTD, residues 7-206) (domain or fragment, Salmonella enterica, UniProt P0CL08 7-206, looked up)
chain: VSNSHQRPAADNLQKLKSLLTNTRQQIKSQTQQVTIKNLYVSSFTLVCFRSGKLTISNNHDTIYCDEPGMLVLKKEQVVNVTLEEVNGHMDFDILEIPTQRLGALYALIPNEQQTKMAVPTEKAQKIFYTPDFPARREVFEHLKTAFSCTKDTSKGCSNCNNKSCIENEELIPYFLLFLLTAFLRLPESYEIILSSAQIT
Consider B1, for which, in “SEC-MALS”, the “stoichiometry N” value stood at 2.

B2: HilD (full length, unfused) (natural protein, Salmonella enterica, UniProt P0CL08 1-309, looked up)
chain: MENVTFVSNSHQRPAADNLQKLKSLLTNTRQQIKSQTQQVTIKNLYVSSFTLVCFRSGKLTISNNHDTIYCDEPGMLVLKKEQVVNVTLEEVNGHMDFDILEIPTQRLGALYALIPNEQQTKMAVPTEKAQKIFYTPDFPARREVFEHLKTAFSCTKDTSKGCSNCNNKSCIENEELIPYFLLFLLTAFLRLPESYEIILSSAQITLKERVYNIISSSPSRQWKLTDVADHIFMSTSTLKRKLAEEGTSFSDIYLSARMNQAAKLLRIGNHNVNAVALKCGYDSTSYFIQCFKKYFKTTPSTFIKMANH
Consider B2, for which the values for the Kd in the data set with GFP-HilD [5] and with GFP-HilD [6] were 4.52 ± 0.5 µM and 3.39 ± 0.77 µM, respectively. Also, the “stoichiometry N” value in “SEC-MALS” is 2.

A word on the Kd: it is the free concentration of one partner at which half of the binding sites on the other are occupied at equilibrium, for simple one-to-one binding. A high value points to a looser complex. Broadly, the stoichiometry N is the number of molecules, sites or subunits per partner or assembly.
